The results in this text go back to patent US20150099282A1, “NADP-DEPENDENT ALANINE DEHYDROGENASE” (EVONIK INDUSTRIES AG, priority 2012, published 2015).

By Km is commonly meant the concentration of substrate that gives half-maximal velocity. One may read the kcat as the number of substrate molecules converted per active site and unit of time at saturation.

Common to all, as to format: biochemical, Bacillus subtilis
Substrate in series [1]: NC(=O)C1=CN([C@@H]2O[C@H](COP(=O)(O)OP(=O)(O)OC[C@H]3O[C@@H](n4cnc5c(N)ncnc54)[C@H](O)[C@@H]3O)[C@@H](O)[C@H]2O)C=CC1
As to the kind of experiment: KM and kcat for NADH/NADPH, reductive amination of pyruvate, BasAlaDH mutant D196A/L197R. As to conditions: other: reductive amination of pyruvate, 5 mM pyruvate, 200 mM ammonium acetate, 10-500 μM NADH, 0.5 μM enzyme, Hepes/NaOH pH 8.3, 30.0 °C. An excerpt: (§1) The conserved aspartate residue was the starting point for constructing the BasAlaDH enzyme variants D196A/L197R, with the SheAlaDH structure being used as template. […] As a result of the substitution L197R, the new cosubstrate specificity is favoured further as the result of the formation of salt bridges between the introduced arginine residue and the NADPH phosphate group.
(§2) The gene of the Bacillus subtilis AlaDH (SEQ ID No. 4) was amplified from the plasmid pUC18-AlaDH by polymerase chain reaction (PCR) using the oligodeoxy nucleotides AlaDHfw (SEQ ID No. 11) and AlaDHrv (SEQ ID No. 12), cleaved at the 3′ end using the restriction enzyme KpnI and ligated with the expression vector pASK-IBA35(+) (IBA GmbH, Göttingen) which had been cleaved with the restriction enzymes EheI and KpnI. The resulting expression plasmid pASK-IBA35(+)-AlaDH on which the BasAlaDH with an N-terminal His6-tag is encoded was verified by means of analytical restriction digestion and DNA sequencing. The plasmid which codes for the enzyme variant D196A/L197R was generated by site-directed mutagenesis using the oligodeoxy nucleotides AlaDH_D196A/L197Rfw (SEQ ID No. 13) and AlaDH_D196A/L197Rrv (SEQ ID No. 14), using the QuikChange method. The resulting expression plasmid pASK-IBA35(+)-AlaDH(D196A/L197R) was verified by means of DNA sequencing.
(§3) The expression plasmids for the BasAlaDH and its variant D196A/L197R were subsequently used for transforming E. coli BL21 (Sambrook et al. (2001) Molecular cloning: a laboratory manual, 3rd edition. Cold Spring Harbor Laboratory Press). Gene expression was induced in each case in LB medium (Sambrook et al. 2001) supplemented with 100 μg/ml ampicillin (2 L culture volume in a 5-l shake flask) at 30° C. in the exponential growth phase at OD550=0.5 by addition of 0.2 μg/ml anhydrotetracyclin (aTc; Acros, Geel, Belgium). After an induction time of 3 hours, the culture was harvested, and the cells were taken up in 40 mM Hepes/NaOH pH 7.5, 0.5 M NaCl and disrupted mechanically in a French press homogenizer (G. Heinemann, Schwäbisch Gmünd). The clear supernatant was applied to a Chelating Sepharose™ Fast Flow column loaded with Zn^2+ (bed volume 2.8 ml; GE Healthcare, Munich), and the enzymes with His6-tag fusion were eluted using a linear imidazole/HCl concentration gradient of from 0 to 500 mM in 40 mM Hepes/NaOH pH 7.5, 0.5 M NaCl. The elution fractions were concentrated by ultrafiltration and purified chromatographically by means of gel filtration on Superdex200 (GE Healthcare) in the presence of 25 mM Hepes/NaOH pH 8.3.
(§4) The Michaelis constant (KM) and the turnover number (kcat) of the two purified enzymes for the cosubstrates NADH and NADPH were determined with the aid of reductive amination of pyruvate, and the catalytic efficiency (kcat/KM) was calculated (Table 1).

Substrate in series [2]: NC(=O)C1=CN([C@@H]2O[C@H](COP(=O)(O)OP(=O)(O)OC[C@H]3O[C@@H](n4cnc5c(N)ncnc54)[C@H](OP(=O)(O)O)[C@@H]3O)[C@@H](O)[C@H]2O)C=CC1
The series is described as above. As to conditions: other: reductive amination of pyruvate, 5 mM pyruvate, 200 mM ammonium acetate, 10-500 μM NADPH, 0.5 μM enzyme, Hepes/NaOH pH 8.3, 30.0 °C.
Excerpt: as §1, §2, §3, §4

Substrate in series [3]: NC(=O)C1=CN([C@@H]2O[C@H](COP(=O)(O)OP(=O)(O)OC[C@H]3O[C@@H](n4cnc5c(N)ncnc54)[C@H](O)[C@@H]3O)[C@@H](O)[C@H]2O)C=CC1
As to the kind of experiment: KM and kcat for NADH/NADPH, reductive amination of pyruvate, wild type BasAlaDH. Conditions: other: reductive amination of pyruvate, 5 mM pyruvate, 200 mM ammonium acetate, 10-500 μM NADH, 0.5 μM enzyme, Hepes/NaOH pH 8.3, 30.0 °C.
Excerpt: as §2, §3, §4

Substrate in series [4]: NC(=O)C1=CN([C@@H]2O[C@H](COP(=O)(O)OP(=O)(O)OC[C@H]3O[C@@H](n4cnc5c(N)ncnc54)[C@H](OP(=O)(O)O)[C@@H]3O)[C@@H](O)[C@H]2O)C=CC1
The description is as above. As to conditions: other: reductive amination of pyruvate, 5 mM pyruvate, 200 mM ammonium acetate, 10-500 μM NADPH, 0.5 μM enzyme, Hepes/NaOH pH 8.3, 30.0 °C.
Excerpt: as §2, §3, §4

B1: Bacillus subtilis alanine dehydrogenase (BasAlaDH) variant D196A/L197R (Asp196Ala, Leu197Arg), SEQ ID No. 1 (with His-Tag: SEQ ID No. 22) (Bacillus subtilis … (protein)
chain: MASRGSHHHHHHGAIIGVPKEIKNNENRVALTPGGVSQLISNGHRVLVETGAGLGSGFENEAYESAGAEIIADPKQVWDAEMVMKVKEPLPEEYVYFRKGLVLFTYLHLAAEPELAQALKDKGVTAIAYETVSEGRTLPLLTPMSEVAGRMAAQIGAQFLEKPKGGKGILLAGVPGVSRGKVTIIGGGVVGTNAAKMAVGLGADVTIIARNADRLRQLDDIFGHQIKTLISNPVNIADAVAEADLLICAVLIPGAKAPTLVTEEMVKQMKPGSVIVDVAIDQGGIVETVDHITTHDQPTYEKHGVVHYAVANMPGAVPRTSTIALTNVTVPYALQIANKGAVKALADNTALRAGLNTANGHVTYEAVARDLGYEYVPAEKALQDESSVAGA
Consider B1, for which, in series [1], the Km came to 887 ± 360 µM, the kcat amounted to 44.48 ± 12 s⁻¹ and the kcat/Km came out at 3.0 μM^−1/min^−1. Moreover, in series [2], the Km was 32 ± 3 µM, the kcat is 28.83 ± 0.65 s⁻¹ and the kcat/Km is 54.1 μM^−1/min^−1.

B2: Bacillus subtilis alanine dehydrogenase (BasAlaDH), wild type (N-terminal His6-tag) (Bacillus subtilis subsp. subtilis str. 168) (protein)
chain: MIIGVPKEIKNNENRVALTPGGVSQLISNGHRVLVETGAGLGSGFENEAYESAGAEIIADPKQVWDAEMVMKVKEPLPEEYVYFRKGLVLFTYLHLAAEPELAQALKDKGVTAIAYETVSEGRTLPLLTPMSEVAGRMAAQIGAQFLEKPKGGKGILLAGVPGVSRGKVTIIGGGVVGTNAAKMAVGLGADVTIIDLNADRLRQLDDIFGHQIKTLISNPVNIADAVAEADLLICAVLIPGAKAPTLVTEEMVKQMKPGSVIVDVAIDQGGIVETVDHITTHDQPTYEKHGVVHYAVANMPGAVPRTSTIALTNVTVPYALQIANKGAVKALADNTALRAGLNTANGHVTYEAVARDLGYEYVPAEKALQDESSVAGA
On to B2, for which, in series [3], the Km was found to be 14 ± 2 µM, the kcat was determined as 14 ± 0.35 s⁻¹ and the kcat/Km is recorded as 59.9 μM^−1/min^−1. In series [4], the Km stood at 448 ± 135 µM, the kcat amounted to 11.1 ± 1.9 s⁻¹ and the kcat/Km is recorded as 1.5 μM^−1/min^−1.
